Measurements published in PMC4760375, “A dual phosphorylation switch controls 14-3-3-dependent cell surface expression of TASK-1” (Journal of Cell Science, 2016).
Non-standard residues stand in square brackets, D forms with d. No end group written: not given here. pS = N[C@@H](COP(=O)(O)O)C(=O)O

T1: GST-tagged TASK-3 C-terminal 15 residues fusion protein, phosphorylated with PKA catalytic subunit (human, UniProt Q9NPC2 360-374)
T1 chain: {GST}-SFTDHQRLMKRRK[pS]V

T2: 14-3-3ε (human, UniProt P62258 1-255)
T2 chain: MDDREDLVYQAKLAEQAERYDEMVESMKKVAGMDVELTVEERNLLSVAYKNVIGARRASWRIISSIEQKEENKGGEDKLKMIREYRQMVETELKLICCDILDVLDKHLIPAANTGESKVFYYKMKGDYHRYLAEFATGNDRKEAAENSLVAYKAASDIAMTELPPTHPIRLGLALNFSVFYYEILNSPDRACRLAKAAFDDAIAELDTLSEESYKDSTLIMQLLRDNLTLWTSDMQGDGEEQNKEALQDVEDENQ

T3: 14-3-3σ (human, UniProt P31947 1-248)
T3 chain: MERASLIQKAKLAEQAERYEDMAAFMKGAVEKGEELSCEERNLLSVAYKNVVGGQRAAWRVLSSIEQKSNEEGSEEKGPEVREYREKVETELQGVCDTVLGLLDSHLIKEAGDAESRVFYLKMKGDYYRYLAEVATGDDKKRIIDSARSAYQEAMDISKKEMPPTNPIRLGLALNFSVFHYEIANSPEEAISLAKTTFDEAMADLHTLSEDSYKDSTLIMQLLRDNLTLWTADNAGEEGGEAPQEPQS

T4: 14-3-3ζ (human, UniProt P63104 1-245)
T4 chain: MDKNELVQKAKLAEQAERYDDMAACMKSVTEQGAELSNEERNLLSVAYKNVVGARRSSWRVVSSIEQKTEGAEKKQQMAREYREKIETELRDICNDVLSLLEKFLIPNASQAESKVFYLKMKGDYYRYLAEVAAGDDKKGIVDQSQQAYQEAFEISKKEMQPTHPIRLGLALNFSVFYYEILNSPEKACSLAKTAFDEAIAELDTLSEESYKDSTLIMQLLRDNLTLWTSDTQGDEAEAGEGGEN

T5: 14-3-3γ (human, UniProt P61981 1-247)
T5 chain: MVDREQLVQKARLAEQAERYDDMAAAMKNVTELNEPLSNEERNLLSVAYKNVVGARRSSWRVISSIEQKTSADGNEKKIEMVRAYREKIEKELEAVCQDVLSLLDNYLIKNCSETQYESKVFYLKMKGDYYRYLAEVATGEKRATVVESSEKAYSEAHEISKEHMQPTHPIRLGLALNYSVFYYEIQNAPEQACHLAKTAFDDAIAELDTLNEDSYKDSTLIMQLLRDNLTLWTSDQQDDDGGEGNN

T6: 14-3-3η (human, UniProt Q04917 1-246)
T6 chain: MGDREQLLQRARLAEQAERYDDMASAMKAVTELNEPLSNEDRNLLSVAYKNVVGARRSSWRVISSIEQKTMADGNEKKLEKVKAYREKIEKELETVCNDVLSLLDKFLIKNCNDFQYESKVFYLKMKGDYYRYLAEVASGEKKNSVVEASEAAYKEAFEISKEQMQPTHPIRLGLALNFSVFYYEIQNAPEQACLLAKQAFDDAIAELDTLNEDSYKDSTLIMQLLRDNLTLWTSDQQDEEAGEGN

T7: 14-3-3τ (human, UniProt P27348 1-245)
T7 chain: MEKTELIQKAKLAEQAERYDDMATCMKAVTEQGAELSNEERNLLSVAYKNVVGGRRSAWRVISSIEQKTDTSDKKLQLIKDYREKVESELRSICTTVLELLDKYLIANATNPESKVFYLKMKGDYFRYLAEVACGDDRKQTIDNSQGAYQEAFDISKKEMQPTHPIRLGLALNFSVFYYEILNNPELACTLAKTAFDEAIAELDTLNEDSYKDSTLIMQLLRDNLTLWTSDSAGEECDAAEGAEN

T8: 14-3-3β (human, UniProt P31946 1-246)
T8 chain: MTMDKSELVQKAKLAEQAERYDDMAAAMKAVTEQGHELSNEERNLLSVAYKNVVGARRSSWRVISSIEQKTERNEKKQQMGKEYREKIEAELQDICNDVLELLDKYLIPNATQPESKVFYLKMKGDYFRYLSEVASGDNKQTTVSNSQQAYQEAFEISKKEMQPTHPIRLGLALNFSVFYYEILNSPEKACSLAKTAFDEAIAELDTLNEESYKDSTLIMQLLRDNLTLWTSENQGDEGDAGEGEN

T9: 14-3-3γ (human, UniProt P61981 1-247)
T9 construct: 14-3-3 protein gamma, human; open reading frame inserted into pMAL2Cx; also called 14-3-3 gamma
T9 sequence (looked up): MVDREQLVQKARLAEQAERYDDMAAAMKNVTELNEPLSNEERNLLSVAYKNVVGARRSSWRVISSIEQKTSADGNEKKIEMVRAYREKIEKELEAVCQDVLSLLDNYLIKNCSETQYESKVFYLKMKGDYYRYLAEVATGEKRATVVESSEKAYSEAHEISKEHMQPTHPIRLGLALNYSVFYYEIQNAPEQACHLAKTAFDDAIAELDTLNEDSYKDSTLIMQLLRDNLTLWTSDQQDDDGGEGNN

T10: 14-3-3τ (human, UniProt P27348 1-245)
T10 construct: 14-3-3 protein tau (theta), human; open reading frame inserted into pMAL2Cx; also called 14-3-3 tau
T10 sequence (looked up): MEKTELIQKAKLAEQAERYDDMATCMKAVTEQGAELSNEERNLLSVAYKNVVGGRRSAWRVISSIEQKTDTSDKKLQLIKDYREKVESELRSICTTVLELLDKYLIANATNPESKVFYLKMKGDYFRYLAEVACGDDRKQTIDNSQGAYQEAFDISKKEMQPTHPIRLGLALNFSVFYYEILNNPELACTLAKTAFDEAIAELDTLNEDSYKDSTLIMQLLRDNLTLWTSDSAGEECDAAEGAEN

T11: 14-3-3η (human, UniProt Q04917 1-246)
T11 construct: 14-3-3 protein eta, human; open reading frame inserted into pMAL2Cx; also called 14-3-3 eta
T11 sequence (looked up): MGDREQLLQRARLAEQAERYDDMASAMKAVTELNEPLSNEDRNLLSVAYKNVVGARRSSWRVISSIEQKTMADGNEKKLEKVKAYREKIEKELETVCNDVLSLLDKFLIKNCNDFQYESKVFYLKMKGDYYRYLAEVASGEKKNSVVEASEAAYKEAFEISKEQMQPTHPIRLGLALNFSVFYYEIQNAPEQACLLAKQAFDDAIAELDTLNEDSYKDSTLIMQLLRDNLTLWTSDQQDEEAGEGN

T12: 14-3-3ζ (human, UniProt P63104 1-245)
T12 construct: 14-3-3 protein zeta, human; open reading frame inserted into pMAL2Cx; also called 14-3-3 zeta
T12 sequence (looked up): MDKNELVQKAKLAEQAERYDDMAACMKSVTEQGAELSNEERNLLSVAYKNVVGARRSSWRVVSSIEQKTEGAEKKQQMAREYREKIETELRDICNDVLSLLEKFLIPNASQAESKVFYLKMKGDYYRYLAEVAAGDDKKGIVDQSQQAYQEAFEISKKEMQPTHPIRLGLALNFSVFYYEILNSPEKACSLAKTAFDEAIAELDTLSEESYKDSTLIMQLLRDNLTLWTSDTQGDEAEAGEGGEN

B1: TASK-3 pS373 ΔV374 C-terminal fluorescent peptide (peptide, UniProt Q9NPC2 360-374, looked up)
peptide: SFTDHQRLMKRRK[pS]
modifications: also: fluorescein label, position not given here
notes: TASK-3 (KCNK9), human, C-terminal peptide with phosphorylated S373 but lacking the C-terminal valine V374; ends at pS373; source: synthetic peptide, bought: Peps4Life Sciences

Key:
[1] = biological target: T1, GST-tagged TASK-3 C-terminal 15 …; test: SPR
[2] = biological target: B1; test: fluorescence polarisation; 10 nM fluorescein-labelled peptide titrated with 14-3-3 protein (1 nM to 120 µM in the results, 100 µM to 1 nM in the methods); 20 mM MOPS, 150 mM NaCl, 0.005% (v/v) CHAPS pH 7.0; room temperature; monophasic fit; settings: both partners purified
[3] = biological target: TASK-1 pS393 C-terminal fluorescent peptide (last 15 amino acids) (human) (UniProt O14649); test: as above
[4] = biological target: TASK-1 pS392 C-terminal fluorescent peptide (human) (UniProt O14649); test: as above
14-3-3ε = biological target: T2, 14-3-3ε; test: FP
14-3-3σ = biological target: T3, 14-3-3σ; test: FP
14-3-3ζ [5] = biological target: T4, 14-3-3ζ; test: FP
14-3-3γ [6] = biological target: T5, 14-3-3γ; test: FP
14-3-3η [7] = biological target: T6, 14-3-3η; test: FP
14-3-3τ [8] = biological target: T7, 14-3-3τ; test: FP
14-3-3β = biological target: T8, 14-3-3β; test: FP
14-3-3γ [9] = biological target: T9, 14-3-3γ; test: fluorescence polarisation; 10 nM fluorescein-labelled peptide titrated with 14-3-3 protein (1 nM to 120 µM in the results, 100 µM to 1 nM in the methods); 20 mM MOPS, 150 mM NaCl, 0.005% (v/v) CHAPS pH 7.0; room temperature; monophasic fit; settings: both partners purified
14-3-3τ [10] = biological target: T10, 14-3-3τ; test: as above; settings: both partners purified
14-3-3η [11] = biological target: T11, 14-3-3η; test: as above; settings: both partners purified
14-3-3ζ [12] = biological target: T12, 14-3-3ζ; test: as above; settings: both partners purified

Row | Kd [1] [µM] | fold reduction of affinity against the TASK-3 pS373 peptide with V374 [2] [fold] | Kd [3] [µM] | Kd [4] [µM] | Kd (14-3-3ε) [µM] | Kd (14-3-3σ) [µM] | Kd (14-3-3ζ [5]) [µM] | Kd (14-3-3γ [6]) [µM] | Kd (14-3-3η [7]) [µM] | Kd (14-3-3τ [8]) [µM] | Kd (14-3-3β) [µM] | binding result (14-3-3γ [9]) | binding result (14-3-3τ [10]) | binding result (14-3-3η [11]) | binding result (14-3-3ζ [12]) | Binder
1 | 0.181 | 3 | 7.5 | 100 |  |  |  |  |  |  |  |  |  |  |  | 14-3-3β (natural protein, human, UniProt P31946 1-246, looked up, 14-3-3 protein beta, human; open reading frame inserted into pMAL2Cx; also called 14-3-3 beta) MTMDKSELVQKAKLAEQAERYDDMAAAMKAVTEQGHELSNEERNLLSVAYKNVVGARRSSWRVISSIEQKTERNEKKQQMGKEYREKIEAELQDICNDVLELLDKYLIPNATQPESKVFYLKMKGDYFRYLSEVASGDNKQTTVSNSQQAYQEAFEISKKEMQPTHPIRLGLALNFSVFYYEILNSPEKACSLAKTAFDEAIAELDTLNEESYKDSTLIMQLLRDNLTLWTSENQGDEGDAGEGEN
2 |  |  |  |  | 29 | 36 | 23 | 9.8 | 9.2 |  |  |  |  |  |  | SLSTFRGLMKRRS[pS]V (also: fluorescein label, position not given here) [TASK-1 pS393 C-terminal fluorescent peptide (last 15 amino acids)]
3 |  |  |  |  | 0.8 |  | 1 | 0.15 |  | 0.22 | 0.37 |  |  |  |  | SFTDHQRLMKRRK[pS]V (also: fluorescein label, position not given here) [TASK-3 pS373 C-terminal fluorescent peptide (last 15 amino acids)]
4 |  |  |  |  | 18 |  | 3.3 | 1.1 | 1.6 | 2.4 | 1.2 | binds | binds | binds | binds | B1
